Results as given in article PMC11656743.
Where “and” joins values, the source holds several entries; their conditions need not be identical. Equal values may be shown once.

How the values were obtained:
[1] = biological target: σ^A, recombinant, tag cleaved (strain LK2832) (M. smegmatis) (UniProt A0QW02); experiment: AUC; sedimentation velocity, 20°C, 50 mM HEPES pH 7.5, 100 mM NaCl, 0.5 mM TCEP, 3 mM NaN3; σ^A 19.4 µM, MoaB2 77.6 µM, σ^A:MoaB2 mixtures 1:0.1 to 1:4
[2] = biological target: MoaB2, recombinant, tag cleaved (strain LK2936) (M. smegmatis) (UniProt A0R3I5); experiment: as above
[3] = biological target: σ^A, recombinant, tag cleaved (strain LK2832) (M. smegmatis) (UniProt A0QW02); experiment: AUC; multi-signal sedimentation velocity (absorbance 280 nm and interference) at σ^A:MoaB2 molar ratio 1:0.3
[4] = biological target: MoaB2, recombinant, tag cleaved (strain LK2936) (M. smegmatis) (UniProt A0R3I5); experiment: SEC; Superdex 200 Increase 10/300, 25 mM Tris-HCl pH 7.5, 50 mM NaCl, 1 mM DTT, 15°C; fractions on SDS-PAGE
[5] = biological target: MoaB2 with C-terminal His-tag, for crystallography (strain LK2615) (M. smegmatis); experiment: dynamic light scattering; 5 mg/mL MoaB2 in 20 mM Tris-HCl pH 8.0, 50 mM NaCl, 3 mM NaN3, 25°C
[6] = biological target: MoaB2 with C-terminal His-tag, for crystallography (strain LK2615) (M. smegmatis); experiment: crystal structure; X-ray, 2.53 Å; crystals from 0.2 M calcium chloride, 14% PEG 400, 0.1 M sodium-HEPES pH 7.5

| Substance | Kd [1] | stoichiometry N [1] | stoichiometry N [2] | stoichiometry N [3] | stoichiometry N [4] | stoichiometry N [5] | stoichiometry N [6] |
| --- | --- | --- | --- | --- | --- | --- | --- |
| MoaB2, recombinant, tag cleaved (strain LK2936) (from UniProt A0R3I5 1-178) (natural protein) | < 1 µM | 1 σ^A:MoaB2 | 6 and 3 | 1 σ^A:MoaB2 | 6 |  |  |
| MoaB2 with C-terminal His-tag, for crystallography (strain LK2615) (natural protein) |  |  |  |  |  | 6 | 6 |
